From PMC9482650, “Quantitative fragmentomics allow affinity mapping of interactomes” (Nature Communications, 2022)

How the values were obtained:
Experiment in all cases: holdup assay
Parameters in all cases: key: below the threshold = too weak to quantify, mostly under pKd 3.1 to 4
[1] = biological target: LIMK2, P53671
[2] = biological target: T1, PDZD7_3, Q9H5P4
T1 sequence (Q9H5P4 857-944, limits assumed, looked up): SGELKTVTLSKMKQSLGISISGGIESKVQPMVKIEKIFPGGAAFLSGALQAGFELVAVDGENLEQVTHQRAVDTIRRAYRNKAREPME

[3] = biological target: HTRA2, O43464
[4] = biological target: TJP1_3, Q07157
[5] = biological target: T2, HTRA3, P83110
T2 sequence (P83110 354-453, limits assumed, looked up): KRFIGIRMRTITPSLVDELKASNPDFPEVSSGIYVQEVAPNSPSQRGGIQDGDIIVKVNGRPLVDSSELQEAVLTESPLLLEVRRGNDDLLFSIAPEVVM

[6] = biological target: Inadl_3, Q8NI35
[7] = biological target: T3, GRIP1_4, Q9Y3R0
T3 sequence (Q9Y3R0 467-571, limits assumed, looked up): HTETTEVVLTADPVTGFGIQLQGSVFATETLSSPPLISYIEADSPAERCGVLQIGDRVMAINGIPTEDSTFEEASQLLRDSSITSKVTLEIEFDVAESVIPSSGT

[8] = biological target: T4, TJP3_3, O95049
T4 sequence (O95049 375-456, limits assumed, looked up): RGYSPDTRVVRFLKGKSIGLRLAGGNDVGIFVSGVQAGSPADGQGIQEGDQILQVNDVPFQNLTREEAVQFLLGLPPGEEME

[9] = biological target: T5, FRMPD1, Q5SYB0
T5 sequence (Q5SYB0 52-145, limits assumed, looked up): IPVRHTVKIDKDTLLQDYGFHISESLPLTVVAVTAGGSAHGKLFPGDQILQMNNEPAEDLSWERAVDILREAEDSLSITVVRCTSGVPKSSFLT

[10] = biological target: NHERF4_4, Q86UT5
[11] = biological target: T6, SIPA1L2, Q9P2F8
T6 sequence (Q9P2F8 945-1036, limits assumed, looked up): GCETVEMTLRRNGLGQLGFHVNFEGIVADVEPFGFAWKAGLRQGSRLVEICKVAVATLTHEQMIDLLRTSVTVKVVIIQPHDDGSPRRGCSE

[12] = biological target: GRIP2_7, Q9C0E4
[13] = biological target: FRMPD4, Q14CM0
[14] = biological target: LNX1_2, Q8TBB1
[15] = biological target: MAGI2_2, Q86UL8
[16] = biological target: T7, APBA3_1, O96018
T7 sequence (O96018 389-490, limits assumed, looked up): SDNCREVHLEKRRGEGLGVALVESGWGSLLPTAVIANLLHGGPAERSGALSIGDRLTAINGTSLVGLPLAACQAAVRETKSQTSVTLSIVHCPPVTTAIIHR

[17] = biological target: GORASP1, Q9BQQ3
[18] = biological target: MAGI2_6, Q86UL8
[19] = biological target: T8, GRIP1_5, Q9Y3R0
T8 sequence (Q9Y3R0 568-668, limits assumed, looked up): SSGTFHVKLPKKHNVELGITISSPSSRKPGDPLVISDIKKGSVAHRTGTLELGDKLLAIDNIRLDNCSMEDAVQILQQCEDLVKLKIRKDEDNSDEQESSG

[20] = biological target: T9, SNTG2, Q9NY99
T9 sequence (Q9NY99 68-166, limits assumed, looked up): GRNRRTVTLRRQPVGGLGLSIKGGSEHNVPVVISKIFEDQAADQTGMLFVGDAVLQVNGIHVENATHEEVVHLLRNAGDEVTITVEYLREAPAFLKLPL

[21] = biological target: T10, PDZD2_2, O15018
T10 sequence (O15018 329-429, limits assumed, looked up): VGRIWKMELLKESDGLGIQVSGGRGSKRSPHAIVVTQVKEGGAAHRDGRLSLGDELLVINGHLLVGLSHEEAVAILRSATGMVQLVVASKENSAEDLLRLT

[22] = biological target: IL16_3, Q14005
[23] = biological target: T11, DLG3_2, Q92796
T11 sequence (Q92796 221-321, limits assumed, looked up): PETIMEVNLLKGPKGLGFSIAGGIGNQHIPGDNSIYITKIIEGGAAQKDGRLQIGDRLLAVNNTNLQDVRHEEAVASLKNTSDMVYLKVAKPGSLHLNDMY

[24] = biological target: Inadl_5, Q8NI35
[25] = biological target: FRMPD2_3, Q68DX3
[26] = biological target: HTRA1, Q92743
[27] = plain residues with an end cap or a label only (N-terminal biotin on a linker: gsgsgs; C-terminal amide)
[28] = plain residues with an end cap or a label only (N-terminal biotin on a linker: ttds)

IL16_3, Q14005, sequence (Q14005 1107-1207): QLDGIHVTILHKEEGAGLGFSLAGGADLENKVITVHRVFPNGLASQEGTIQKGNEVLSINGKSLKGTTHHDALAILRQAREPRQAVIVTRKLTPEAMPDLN
Inadl_3, Q8NI35, sequence (Q8NI35 359-469): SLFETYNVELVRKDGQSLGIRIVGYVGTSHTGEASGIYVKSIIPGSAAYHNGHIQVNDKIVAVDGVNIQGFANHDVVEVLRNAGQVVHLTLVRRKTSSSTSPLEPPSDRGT
HTRA1, Q92743, sequence (Q92743 360-477): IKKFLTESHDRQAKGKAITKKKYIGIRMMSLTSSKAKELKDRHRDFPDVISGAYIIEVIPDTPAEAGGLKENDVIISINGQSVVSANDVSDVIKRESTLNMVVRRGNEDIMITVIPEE
Inadl_5, Q8NI35, sequence (Q8NI35 673-780): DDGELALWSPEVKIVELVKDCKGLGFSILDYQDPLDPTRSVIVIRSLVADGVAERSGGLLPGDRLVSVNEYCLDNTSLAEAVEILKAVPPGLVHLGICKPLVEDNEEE
LNX1_2, Q8TBB1, sequence (Q8TBB1 371-470): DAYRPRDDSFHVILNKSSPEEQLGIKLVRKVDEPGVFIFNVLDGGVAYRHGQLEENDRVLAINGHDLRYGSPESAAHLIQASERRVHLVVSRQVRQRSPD
HTRA2, O43464, sequence (O43464 355-458): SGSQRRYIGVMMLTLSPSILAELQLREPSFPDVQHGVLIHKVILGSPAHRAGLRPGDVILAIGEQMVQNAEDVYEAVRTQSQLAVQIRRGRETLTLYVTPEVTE
LIMK2, P53671, sequence (P53671 143-248): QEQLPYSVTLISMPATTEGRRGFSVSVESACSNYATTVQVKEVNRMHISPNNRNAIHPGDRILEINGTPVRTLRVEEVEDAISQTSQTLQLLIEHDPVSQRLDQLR
FRMPD2_3, Q68DX3, sequence (Q68DX3 1073-1166): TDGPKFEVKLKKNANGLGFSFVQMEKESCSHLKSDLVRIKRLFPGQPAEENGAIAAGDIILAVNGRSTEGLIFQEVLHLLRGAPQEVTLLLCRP
GRIP2_7, Q9C0E4, sequence (Q9C0E4 934-1023): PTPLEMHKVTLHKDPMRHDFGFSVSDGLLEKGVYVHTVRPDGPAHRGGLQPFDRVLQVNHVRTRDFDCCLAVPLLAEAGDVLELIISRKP
NHERF4_4, Q86UT5, sequence (Q86UT5 464-550): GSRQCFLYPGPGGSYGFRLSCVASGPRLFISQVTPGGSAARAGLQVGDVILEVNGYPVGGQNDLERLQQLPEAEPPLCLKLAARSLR
MAGI2_6, Q86UL8, sequence (Q86UL8 1141-1229): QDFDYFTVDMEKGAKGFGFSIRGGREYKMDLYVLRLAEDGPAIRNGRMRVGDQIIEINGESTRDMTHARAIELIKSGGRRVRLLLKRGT
GORASP1, Q9BQQ3, sequence (Q9BQQ3 1-208): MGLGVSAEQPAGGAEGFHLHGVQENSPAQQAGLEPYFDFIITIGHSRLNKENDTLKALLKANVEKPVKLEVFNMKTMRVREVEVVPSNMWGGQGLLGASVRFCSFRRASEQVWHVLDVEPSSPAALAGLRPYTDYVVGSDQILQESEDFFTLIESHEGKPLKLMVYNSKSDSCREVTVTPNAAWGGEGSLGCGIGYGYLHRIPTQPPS
FRMPD4, Q14CM0, sequence (Q14CM0 67-160): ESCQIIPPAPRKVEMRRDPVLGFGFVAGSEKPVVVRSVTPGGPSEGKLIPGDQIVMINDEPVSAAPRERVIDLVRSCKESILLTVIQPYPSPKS
TJP1_3, Q07157, sequence (Q07157 416-512): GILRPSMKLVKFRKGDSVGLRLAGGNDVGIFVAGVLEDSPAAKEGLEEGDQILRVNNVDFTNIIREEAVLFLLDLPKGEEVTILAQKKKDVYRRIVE
MAGI2_2, Q86UL8, sequence (Q86UL8 410-522): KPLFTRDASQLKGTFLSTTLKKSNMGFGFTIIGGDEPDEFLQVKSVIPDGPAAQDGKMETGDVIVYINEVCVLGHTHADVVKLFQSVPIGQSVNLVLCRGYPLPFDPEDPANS

YGIVQETTFDLGGDIH [MLLT4_int, P55196] was tested, and the pKd [1, 27] was “below the threshold”, the pKd [2, 27] was 4.9 and the pKd [3, 27] was “below the threshold”. The pKd [4, 27] was “below the threshold”, the pKd [5, 27] was “below the threshold” and the pKd [6, 27] was “below the threshold”. The pKd [7, 27] was “below the threshold”, the pKd [8, 27] was “below the threshold” and the pKd [9, 27] was “below the threshold”. For the same binder, the pKd [10, 27] was 3.84, the pKd [11, 27] was “below the threshold” and the pKd [12, 27] was “below the threshold”. The pKd [13, 27] was “below the threshold”, the pKd [14, 27] was “below the threshold” and the pKd [15, 27] was “below the threshold”. The pKd [16, 27] was “below the threshold”, the pKd [17, 27] was “below the threshold” and the pKd [18, 27] was “below the threshold”. The pKd [19, 27] was “below the threshold”, the pKd [20, 27] was “below the threshold” and the pKd [21, 27] was “below the threshold”. The pKd [22, 27] was “below the threshold”, the pKd [23, 27] was 4.21 and the pKd [24, 27] was “below the threshold”. For the same binder, the pKd [25, 27] was “below the threshold” and the pKd [26, 27] was “below the threshold”.

For PVRVCEETSL [OTULIN, Q96BN8], the pKd [1, 28] was “below the threshold”, the pKd [2, 28] was 4.41 and the pKd [3, 28] was “below the threshold”. The pKd [4, 28] was “below the threshold”, the pKd [5, 28] was “below the threshold” and the pKd [6, 28] was 3.66. The pKd [7, 28] was “below the threshold”, the pKd [8, 28] was “below the threshold” and the pKd [9, 28] was “below the threshold”. The pKd [10, 28] was “below the threshold”, the pKd [11, 28] was “below the threshold” and the pKd [12, 28] was 3.66. For the same binder, the pKd [13, 28] was 4.59, the pKd [14, 28] was “below the threshold” and the pKd [15, 28] was 4.09. For the same binder, the pKd [16, 28] was 3.51, the pKd [17, 28] was 3.64 and the pKd [18, 28] was 4.06. The pKd [19, 28] was 3.78, the pKd [20, 28] was 4.63 and the pKd [21, 28] was 3.54. The pKd [22, 28] was “below the threshold”, the pKd [23, 28] was 4.35 and the pKd [24, 28] was 3.54. The pKd [25, 28] was “below the threshold” and the pKd [26, 28] was 4.04.

FHPLGADSQV [SLC2A1, P11166] was tested, and the pKd [1, 28] was “below the threshold”, the pKd [2, 28] was “below the threshold” and the pKd [3, 28] was “below the threshold”. The pKd [4, 28] was “below the threshold”, the pKd [5, 28] was “below the threshold” and the pKd [6, 28] was “below the threshold”. For the same binder, the pKd [7, 28] was “below the threshold”, the pKd [8, 28] was “below the threshold” and the pKd [9, 28] was “below the threshold”. For the same binder, the pKd [10, 28] was “below the threshold”, the pKd [11, 28] was “below the threshold” and the pKd [12, 28] was “below the threshold”. The pKd [13, 28] was “below the threshold”, the pKd [14, 28] was “below the threshold” and the pKd [15, 28] was “below the threshold”. For the same binder, the pKd [16, 28] was “below the threshold”, the pKd [17, 28] was “below the threshold” and the pKd [18, 28] was 3.99. The pKd [19, 28] was “below the threshold”, the pKd [20, 28] was “below the threshold” and the pKd [21, 28] was 4.22. The pKd [22, 28] was “below the threshold”, the pKd [23, 28] was 4.03 and the pKd [24, 28] was “below the threshold”. The pKd [25, 28] was “below the threshold” and the pKd [26, 28] was “below the threshold”.

For SGSRPSATVV [HPV73-E6, Q82005], the pKd [1, 28] was “below the threshold”, the pKd [2, 28] was 4.7 and the pKd [3, 28] was “below the threshold”. For the same binder, the pKd [4, 28] was “below the threshold”, the pKd [5, 28] was 3.7 and the pKd [6, 28] was “below the threshold”. The pKd [7, 28] was “below the threshold”, the pKd [8, 28] was “below the threshold” and the pKd [9, 28] was “below the threshold”. For the same binder, the pKd [10, 28] was “below the threshold”, the pKd [11, 28] was “below the threshold” and the pKd [12, 28] was 3.56. For the same binder, the pKd [13, 28] was “below the threshold”, the pKd [14, 28] was 4.06 and the pKd [15, 28] was 4.19. The pKd [16, 28] was “below the threshold”, the pKd [17, 28] was 4.19 and the pKd [18, 28] was “below the threshold”. For the same binder, the pKd [19, 28] was “below the threshold”, the pKd [20, 28] was “below the threshold” and the pKd [21, 28] was 4.11. For the same binder, the pKd [22, 28] was “below the threshold”, the pKd [23, 28] was 4.11 and the pKd [24, 28] was “below the threshold”. The pKd [25, 28] was “below the threshold” and the pKd [26, 28] was 3.9.

In the case of VDFPPKESSL [ACVR2A, P27037], the pKd [1, 28] is reported as “below the threshold”, the pKd [2, 28] is reported as 3.61 and the pKd [3, 28] is reported as “below the threshold”. For the same binder, the pKd [4, 28] was “below the threshold”, the pKd [5, 28] was “below the threshold” and the pKd [6, 28] was “below the threshold”. For the same binder, the pKd [7, 28] was “below the threshold”, the pKd [8, 28] was “below the threshold” and the pKd [9, 28] was “below the threshold”. The pKd [10, 28] was “below the threshold”, the pKd [11, 28] was “below the threshold” and the pKd [12, 28] was “below the threshold”. The pKd [13, 28] was “below the threshold”, the pKd [14, 28] was “below the threshold” and the pKd [15, 28] was 3.78. For the same binder, the pKd [16, 28] was “below the threshold”, the pKd [17, 28] was “below the threshold” and the pKd [18, 28] was 3.69. For the same binder, the pKd [19, 28] was “below the threshold”, the pKd [20, 28] was 4.11 and the pKd [21, 28] was 3.63. The pKd [22, 28] was “below the threshold”, the pKd [23, 28] was “below the threshold” and the pKd [24, 28] was “below the threshold”. The pKd [25, 28] was “below the threshold” and the pKd [26, 28] was “below the threshold”.
